Test results published in doi:10.1101/299487 (bioRxiv, 2018).
Like-named read-outs stand apart in the source and are kept apart here.

B1: Dam1C/DASH heterodecamer (recombinant) (complex, yeast (budding yeast))
chain 1: MSEDKAKLGTTRSATEYRLSIGSAPTSRRSSMGESSSLMKFADQEGLTSSVGEYNENTIQQLLLPKIRELSDSIITLDSNFTRLNFIHESLADLNESLGSLLYGIMSNSWCVEFSQAPHDIQDDLIAIKQLKSLEDEKNNLVMELSNMERGIKRKKDEQGENDLAKASQNKQFNQPLFPSSQVRKYRSYDNRDKRKPSKIGNNLQVENEEDYEDDTSSEASFVLNPTNIGMSKSSQGHVTKTTRLNNNTNSKLRRKSILHTIRNSIASGADLPIENDNVVNLGDLHPNNRISLGSGAARVVNGPVTKNRNSMFSGRAERKPTESRHSVAKKTEKKINTRPPFR
chain 2: MMASTSNDEEKLISTTDKYFIEQRNIVLQEINETMNSILNGLNGLNISLESSIAVGREFQSVSDLWKTLYDGLESLSDEAPIDEQPTLSQSKTK
chain 3: MDSIDEQIAIKRKELQSLQKITSLTDGLKIQLTELNEQIKEMGMNADSVAQLMNNWDSIINNISQASLGLLQYAEGDYEIGPWKDSKKKESEQSNETGLEAQENDKNDEDNDEDEDLVPLPETMVRIRVDGNE
chain 4: MEHNLSPLQQEVLDKYKQLSLDLKALDETIKELNYSQHRQQHSQQETVSPDEILQEMRDIEVKIGLVGTLLKGSVYSLILQRKQEQESLGSNSK
chain 5: MENPHEQVQANILSRIIGNVKRLNESVAILNQELVTINNRNKNLEIMGAICDNYHSSVQFNLEATNNKKPPL
chain 6: MSEQSQLDDSTIDKLIPQIFNEMRSNLNNTTNKFPKSTGGGASDNISANSNSIRSFNSITTQSLLKESESLDKITAMIKNVTAALKNNLPVYVNQVHEVCKSTNSILDSWINIHSQAGYIHKLMSDQTYLKLINDRLHNENVNTNDEDGSTLHNVIALKKKEILDLRQKLENRKGEKDAAPAKPPNQGLNPRYGVQSGRRPVPSAGISNNGRVRKTHVPASKRPSGIPRVTNRWTKPTASSSRKMFR
chain 7: MDSASKEETLEKLDQEITVNLQKIDSNLSFCFHKITQDIIPHVATYSEICERIMDSTEWLGTMFQETGLVNLQANAAAPVGNAPVKSLVSNNVGIFPTSAEEASRQSQTDNGPNEADSAVHVNRDVHSMFNNDSIDDFHTANITSTGQILKLPDSSDEDTGSEAVPSREQTDLTGEGHGGADDEQDESTIQRQSRKRKISLLLQQQYGSSSSMVPSPIVPNKMRKQLAHEEHINNDGDNDDENSNNIESSPLKQGHHHPKGQADDNNEGPDEEESTKEVPKPGTIIHFSTNR
chain 8: MTDALEQSVLALEGTVSVLKDSVESLKCANEPSTNLASTMLQTKRVFRLVPEYDVERSKLDLIEEVEPLVRTLGDKLRKSMGRMQRELDTLQQTYELNDLRLKKNISMDDDDALNSPDMGQEYEGRDADDVVMMASSTNEELEELKKLKEKKKQLENKLEILKQK
chain 9: MGESLDRCIDDINRAVDSMSTLYFKPPGIFHNAILQGASNKASIRKDITRLIKDCNHDEAYLLFKVNPEKQSVSRRDGKEGVFDYVIKRDTDMKRNRRLGRPGEKPIIHVPKEVYLNKDRLDLNNKRRRTATTSGGGLNGFIFDTDLIGSSVISNSSSGTFKALSAVFKDDPQIQRLLYALENGSVLMEEESNNQRRKTIFVEDFPTDLILKVMAEVTDLWPLTEFKQDYDQLYHNYEQLSSKLRFIKKEVLLQDDRLKTMSQYHPSSSHDVAKIIRKEKDEIRRLEMEIANLQE
chain 10: MNANKQRQYNQLAHELRELQTNLQETTKQLDIMSKQCNENLVGQLGKVHGSWLIGSYIYYMEQMLGKTQ
B2: Dam1C/DASH outer-kinetochore complex in yeast cells (complex)
chain 1: B1 chain 1
chain 2: B1 chain 2
chain 3: B1 chain 3
chain 4: B1 chain 4
chain 5: B1 chain 5
chain 6: B1 chain 6
chain 7: B1 chain 7
chain 8: B1 chain 8
chain 9: B1 chain 9
chain 10: B1 chain 10

Experiments:
cryo-EM structure [1] = biological target: the molecule itself; experiment: cryo-EM structure
cryo-EM structure [2] = biological target: the molecule itself; experiment: cryo-EM structure; remark: listed apart in the source

Row | Protein | stoichiometry N (cryo-EM structure [1]) | stoichiometry N (cryo-EM structure [2])
1 | B1 | 17 | 
2 | B2 |  | 17
